Drawing on article PMC3605678, this text covers fold reduction of binding affinity against the wild-type pair for one substance.

The target in this experiment is ERK5ΔC385–399 (human) (UniProt Q13164). The experiment can be described thus: fluorescence polarisation. A general note: In fluorescence polarisation assays a small probe gives low polarisation when free and higher when bound to something large.

Sequence of MKK5 PB1-D construct (16–130), unlabeled (Q13163 16-130): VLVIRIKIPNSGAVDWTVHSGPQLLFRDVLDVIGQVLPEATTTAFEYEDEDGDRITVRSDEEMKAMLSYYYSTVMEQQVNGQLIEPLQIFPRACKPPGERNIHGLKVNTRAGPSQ

Substance “MKK5 PB1-D construct (16–130), unlabeled (from UniProt Q13163 16-130) (domain or fragment)” gave a fold reduction of binding affinity against the wild-type pair of 20 fold.
